Results published in US7977317B2, “Compositions and methods for modulating blood-brain barrier transport” (Raptor Pharmaceutical Inc., priority 2001, dated 2011).

How the values were obtained:
BBCEC monolayers [1] = test: Accumulation of ligands in BBCEC monolayers; assay type: cell-based, bovine; settings: native proteins (FIG. 13c)
Method: (§1) FIG. 7 illustrates the results of experiments where the ligands p97, Lf and Tf were heated or not heated prior to the binding study. In all cases, binding experiments were conducted in the transwell apparatus as described previously, with the exception that binding was conducted at either 4° C. or at 37° C. For the 37° C. trial, a separate experiment was conducted where the ligand was boiled for 30 mins then rapidly cooled prior to administration on the transwell plates.
(§2) FIG. 13 illustrates the transcytosis and accumulation of p97 and transferrin in BBCEC monolayers. FIG. 13a, Transcytosis experiments were performed at 37° C. (solid bars) or 4° C. (white bars). [^125I]-p97 or bovine [^125I]-holo-transferrin (1 mg/ml) was added to the upper side of the cell-covered filter. At the end of the experiment, radiolabelled proteins were measured in the lower chamber of each well by TCA precipitation (n=4). Controls were also performed at 37° C. with denatured [^125I]-p97 or bovine [^125I]-holo-transferrin boiled for 30 min (grey bars) (n=2); FIG. 13b, Biospecific interaction analysis was performed with native or boiled p97 for the indicated times. MAb L235 (5 μg) was immobilized on a sensor chip (SM5) using standard procedures incorporating NHS, EDC and ethanolamine. Native and boiled p97 (5 to 30 min) diluted at 1 mg/ml in Ringer/Hepes was cooled and injected into the BIAcore. The surface plasmon resonance response obtained for native p97 and boiled p97 was plotted (in relative units (RU)) as a function of time; FIG. 13c, The accumulation of both proteins into BBEC cells were also measured. Briefly, after incubation at 37° C. (solid bars) or 4° C. (white bars) with either [^125I]-protein, cells were washed four times with cold PBS. Accumulation of both denatured proteins (grey bars) was also measured at 37° C. Filters were then removed, and the radioactivity associated with the cells was quantified (n=3).
as §1, with “In” for “FIG. 7 illustrates the results of experiments where the ligands p97, Lf and Tf were heated or not heated prior to the binding study. In”

BBCEC monolayers [2] = test: Transcytosis across BBCEC monolayers (in vitro BBB model); assay type: cell-based, bovine; settings: 200-fold molar excess of competitor, [125I]-p97 25 nM (FIG. 15a, 15b)
Description: FIG. 10 assesses the ability of several agents to interfere with p97 transyctosis. FIG. 10a, transcytosis of I125-P97 was compared in the presence of cold p97 (5 micromolar), Lf (5 micromolar), and Tf (5 micromolar). […] FIG. 10c, RAP, a known poly-peptide inhibitor of the LDL-Receptor family was applied to the cells (25 micrograms/ml).
FIG. 11 examines the accumulation and transcytosis of p97. FIG. 11a, of [^125I]-p97, [^125I]-BSA and [^125I]-holo-transferrin one hour after i.v. injection. The radioactivity in brain was compared between the three compounds. (n=3); FIG. 11b, Accumulation of p97 and transferrin into the mouse brain parenchyma. In situ brain perfusion was performed with human [^125I]-p97 or [^125I]-holo-transferrin at a final concentration of 10 nM via a catheter inserted in the right common carotid artery. The volume of distribution (VD) of [^125I]-proteins were obtained in the whole brain homogenate (white bars), in brain capillaries (solid bars) and in brain parenchyma (hatched bars) after isolation of the right hemisphere and capillary depletion. Results were obtained for p97 (n=10) and for holo-transferrin (n=6); FIG. 11c, Transcytosis of p97 across BBCEC monolayers. Transcytosis experiments were performed 37° C. (open circles) and 4° C. (closed circles) with BBCEC monolayers. [^125I]-p97 (1 mg/ml) was added to the upper side of the cell-covered filter. One representative experiment is shown (n=4); FIG. 11d, Preferential transport of p97 across the BBCEC monolayers. Apical-to-basal and basal-to-apical transport of [^125I]-p97 (25 nM) was measured for 2 hrs at 37° C. At the end of the experiment, [^125I]-p97 was assessed in the lower or upper chambers of each well by TCA precipitation (n=4).
as §2
FIG. 14 illustrates the stability of p97 and integrity of the BBCEC monolayers following p97 transcytosis. FIG. 14a, Transcytosis experiments were performed at 37° C. and 4° C. by adding p97 (1 mg/ml) to the upper compartment. At the end of the experiment, 50 μl from each lower chamber was used for SDS-polyacrylamide gel electrophoresis. After electrophoresis, the gels were stained with Coomassie Blue. A standard curve was also made with known amounts of recombinant p97 (0-2 μg); FIG. 14b. The gels were dried and scanned to quantify the amount of intact p97 that crossed the BBCEC monolayers at 37° C. and 4° C. (n=3); FIG. 14c, Effect of p97 on sucrose permeability of BBCE cell monolayers co-cultured with astrocytes. […]

B1: bovine holo-transferrin: bovine holo-transferrin (protein, UniProt Q29443 20-704, looked up)
Serotransferrin: DPERTVRWCTISTHEANKCASFRENVLRILESGPFVSCVKKTSHMDCIKAISNNEADAVTLDGGLVYEAGLKPNNLKPVVAEFHGTKDNPQTHYYAVAVVKKDTDFKLNELRGKKSCHTGLGRSAGWNIPMAKLYKELPDPQESIQRAAANFFSASCVPCADQSSFPKLCQLCAGKGTDKCACSNHEPYFGYSGAFKCLMEGAGDVAFVKHSTVFDNLPNPEDRKNYELLCGDNTRKSVDDYQECYLAMVPSHAVVARTVGGKEDVIWELLNHAQEHFGKDKPDNFQLFQSPHGKDLLFKDSADGFLKIPSKMDFELYLGYEYVTALQNLRESKPPDSSKDECMVKWCAIGHQERTKCDRWSGFSGGAIECETAENTEECIAKIMKGEADAMSLDGGYLYIAGKCGLVPVLAENYKTEGESCKNTPEKGYLAVAVVKTSDANINWNNLKDKKSCHTAVDRTAGWNIPMGLLYSKINNCKFDEFFSAGCAPGSPRNSSLCALCIGSEKGTGKECVPNSNERYYGYTGAFRCLVEKGDVAFVKDQTVIQNTDGNNNEAWAKNLKKENFEVLCKDGTRKPVTDAENCHLARGPNHAVVSRKDKATCVEKILNKQQDDFGKSVTDCTSNFCLFQSNSKDLLFRDDTKCLASIAKKTYDSYLGDDYVRAMTNLRQCSTSKLLEACTFHKP
modifications: iron-loaded (holo)
BBCEC monolayers [1]
  Accumulation in BBCE cells: no significant accumulation
BBCEC monolayers [2]
  Reduction of apical-to-basal transport of [125I]-p97: had no impact
